In paper PMC7827474, “DnaJ Proteins Regulate WUS Expression in Shoot Apical Meristem of Arabidopsis”:

Assays:
MBP:WUS = target: T1, MBP:WUS (Arabidopsis thaliana, UniProt Q9SB92 1-292); test: EMSA; EMSA: 10 mM HEPES pH 7.8, 20 mM KCl, 1 mM MgCl2, 21 mM DTT (so in the source), 7.5% glycerol, 0.5% Triton-100, 300 ng carrier DNA, 0.02% BSA, 10 uL, 22 C, 30 min; 8%; conditions: protein: recombinant; tags: MBP; chain copies: 2; label: Texas Red (3' end per Methods); blunt
T1 sequence: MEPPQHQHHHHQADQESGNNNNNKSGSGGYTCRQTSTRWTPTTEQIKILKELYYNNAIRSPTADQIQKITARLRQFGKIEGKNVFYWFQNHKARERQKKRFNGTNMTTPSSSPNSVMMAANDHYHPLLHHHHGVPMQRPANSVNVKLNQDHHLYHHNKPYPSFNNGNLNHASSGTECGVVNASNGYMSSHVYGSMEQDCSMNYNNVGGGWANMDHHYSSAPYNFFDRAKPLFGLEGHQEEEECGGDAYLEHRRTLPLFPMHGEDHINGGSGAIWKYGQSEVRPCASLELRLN

MBP:WUS;MBP:SDJ3 = target: T2, MBP:WUS;MBP:SDJ3 (Arabidopsis thaliana;Arabidopsis …, UniProt Q9SB92;F4I0F5 1-292;1-797, |); test: EMSA; more efficient than WUS alone; EMSA: 10 mM HEPES pH 7.8, 20 mM KCl, 1 mM MgCl2, 21 mM DTT (so in the source), 7.5% glycerol, 0.5% Triton-100, 300 ng carrier DNA, 0.02% BSA, 10 uL, 22 C, 30 min; 8%; conditions: protein: recombinant;recombinant; tags: MBP;MBP; label: Texas Red (3' end per Methods); blunt
T2 sequence 1: T1 sequence
T2 sequence 2: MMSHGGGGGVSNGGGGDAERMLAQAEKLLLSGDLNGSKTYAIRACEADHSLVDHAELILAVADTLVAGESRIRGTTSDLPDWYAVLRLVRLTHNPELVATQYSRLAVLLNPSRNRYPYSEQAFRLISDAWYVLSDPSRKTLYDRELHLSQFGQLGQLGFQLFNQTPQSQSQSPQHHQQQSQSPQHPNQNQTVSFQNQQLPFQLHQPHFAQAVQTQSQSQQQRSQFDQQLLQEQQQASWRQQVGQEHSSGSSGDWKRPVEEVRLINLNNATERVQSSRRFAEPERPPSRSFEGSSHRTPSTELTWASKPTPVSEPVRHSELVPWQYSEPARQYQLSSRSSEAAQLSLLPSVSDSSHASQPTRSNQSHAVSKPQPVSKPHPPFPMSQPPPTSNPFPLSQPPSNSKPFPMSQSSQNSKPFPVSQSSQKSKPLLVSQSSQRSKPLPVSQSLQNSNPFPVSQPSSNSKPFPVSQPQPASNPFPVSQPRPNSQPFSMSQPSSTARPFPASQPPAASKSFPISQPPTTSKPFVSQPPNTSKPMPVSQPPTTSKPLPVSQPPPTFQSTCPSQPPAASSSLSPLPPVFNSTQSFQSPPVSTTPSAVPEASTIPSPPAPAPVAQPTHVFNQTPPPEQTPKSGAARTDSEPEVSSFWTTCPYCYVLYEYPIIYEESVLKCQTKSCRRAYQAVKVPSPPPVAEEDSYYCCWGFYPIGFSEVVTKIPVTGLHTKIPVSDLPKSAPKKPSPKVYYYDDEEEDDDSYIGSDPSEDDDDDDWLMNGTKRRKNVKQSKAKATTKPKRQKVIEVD

MBP:WUS;MBP:At5g09540 = target: T3, MBP:WUS;MBP:At5g09540 (Arabidopsis thaliana;Arabidopsis …, UniProt Q9SB92;A2RVL3 1-292;1-280, |); test: as above; conditions: protein: recombinant;recombinant; tags: MBP;MBP; label: Texas Red (3' end per Methods); blunt
T3 sequence 1: T1 sequence
T3 sequence 2: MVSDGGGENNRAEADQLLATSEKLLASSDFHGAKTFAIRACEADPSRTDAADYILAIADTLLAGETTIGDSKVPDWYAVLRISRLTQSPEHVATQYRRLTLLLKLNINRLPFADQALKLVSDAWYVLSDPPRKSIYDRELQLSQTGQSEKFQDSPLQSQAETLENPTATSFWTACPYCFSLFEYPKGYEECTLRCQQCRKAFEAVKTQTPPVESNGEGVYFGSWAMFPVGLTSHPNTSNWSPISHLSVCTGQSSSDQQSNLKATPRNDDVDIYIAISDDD

Measured: binding result

B1: WUS promoter probe (pWUS) (dsDNA)
DNA 1: CTAGAATGAATAATAAAAAAAGTGAAAACCGTTTGATCATAA
DNA 2: TTATGATCAAACGGTTTTCACTTTTTTTATTATTCATTCTAG
binds: all assays above
